In US20210322511A1 (Harvard, published 2021):

Experiments:
[1] = molecular target: the molecule itself; assay: SEC, then non-reducing and reducing SDS-PAGE
[2] = molecular target: the molecule itself; assay: non-reducing SDS-PAGE, disulfide-linked homodimer
Description: Fractions of the last SEC were analyzed by SDS-PAGE and Coomassie-blue staining. The position of SP-B is indicated by an arrow.
The extract was subjected to chromatography on a Sepharose LH-20 column to remove phospholipids. Protein fractions were dried, dissolved in the detergent octylglucoside, and further purified by size-exclusion chromatography (SEC).

Protein | binding result [1] | binding result [2]
recombinant human SP-BM (other, inter-molecular disulfide bond in the dimer, also called recombinant SP-BM) PIPLPYCWLCRALIKRIQAMIPKGALAVAVAQVCRVVPLVAGGICQCLAERYSVILLDTLLGRMLPQLVCRLVLRCSM | binds | 
SP-BM purified from bovine lungs (other, UniProt P15781 188-266, looked up, monomers disulfide-linked through Cys48, domain: SP-BM; also called bovine SP-BM; mature SP-B) FPIPIPYCWLCRTLIKRIQAVIPKGVLAMTVAQVCHVVPLLVGGICQCLVERYSVILLDTLLGRMLPQLVCGLVLRCSS |  | binds
